Results from PMC5384658, “The evolution of Sex-linked barring alleles in chickens involves both regulatory and coding changes in CDKN2A” (PLoS Genetics, 2017).

Assays:
[1] = ultracentrifugation, far-UV CD and NMR; ref [21], [22]; cited from earlier work
Source text: The striking phenotypic differences associated with the B0, B1, and B2 alleles imply that the two missense mutations must affect ARF function since all three alleles share the two non-coding changes associated with Sex-linked barring (Fig 1). To learn more about the specific effects of the coding ARF mutations we performed biophysical studies on peptides corresponding to the N-terminus of wild-type and mutant chicken ARF (ARF1-14^WT, ARF1-14^V9D, ARF1-14^R10C) and purified chicken MDM2_204-298. Previously, using a combination of ultracentrifugation, far-UV circular dichroism (CD) and NMR exper ...

[2] = molecular target: chicken MDM2_(204-298) (chicken)

## MDM2_210-304: human MDM2 XP_005268929 residues 210-304, corresponding to chicken MDM2_204-298
[1]
  structure in free state: intrinsically disordered in their free states

## ARF_(1-14)^V9D peptide (N-terminus of chicken ARF with V9D, B1 allele) (from UniProt A0A8V0X483 1-14)
[2]
  p53-luc luciferase reporter activity in U2OS cells transfected with chicken ARF (coding region, pcDNA3.1) carrying V9D, compared to wild-type chicken ARF (% of wild type): 58

## ARF_(1-14)^R10C peptide (N-terminus of chicken ARF with R10C, B2 allele) (from UniProt A0A8V0X483 1-14)
[2]
  p53-luc luciferase reporter activity in U2OS cells transfected with chicken ARF (coding region, pcDNA3.1) carrying R10C, compared to wild-type chicken ARF (% of wild type): 77
